Data reported in patent US20230090901A1 (GAMMADELTA THERAPEUTICS, published 2023).
Positions count from the first letter of the chain named.

B1: G4_22 (antibody, human IgG1, V domains shown)
VH: QVQLVESGGGLVQPGGSLRLSCAASGFTFSTYAMSWVRQAPGKGLEWVSTVSGSGGTTYYADSVKGRFTISRDNSKNTLYLQMNSLRAEDTAVYYCAKDSTAVTDWFDPWGRGTLVTVSS
VL: DIQMTQSPSSLSASVGDRVTITCQASQDISNYLNWYQQKPGKAPKLLIYAASSLQSGVPSRFSVSGSGTDFTLTISNLQPEDFATYYCQQSYSIPWTFGQGTKVEIKR
notes: also called clone G4_22
B2: G4_2 (antibody, human IgG1, V domains shown)
VH: QMQLVQSGAEVKKPGATVKISCKVSGYPFTDYYIHWVQQAPGKGLEWMGLVDPEDGQSRSAERFQGRVTITADTSTDTAYMELSSLRSEDTAVYYCATFPVAGFYGMDVWGQGTLVTVSS
VL: B1 VL with V64G, N77G, Q89L, Q90E, S91D, S93N, I94Y, P95L, V104L
notes: also called clone G4_2
B3: G4_1 (antibody, human IgG1, V domains shown)
VH: EVQLLESGGGVVQPGRPLRLSCAASGFTFSSYSMNWVRQAPGKGLEWVSSISSSSSYIYYADSVKGRFTISRDNSKNTLYLQMNSLRAEDTAVYYCAKGHWYFDLWGRGTLVTVSS
VL: B1 VL with A50D, S53N, Q55E, S56T, V64G, N77S, I94T, W96V, Q100P
notes: also called clone G4_1
B4: G4_24 (antibody, human IgG1, V domains shown)
VH: QVQLQQSGPGLVKPSQTLSLTCAISGASVSSNSVAWNWIRQSPSRGLEWLGRTYYRSRWYNDYALSVKSRIIINPDTSKNQFSLQLNSVTPEDTAVYYCARDWSSTRSFDYWGRGTLVTVSS
VL: not shown
notes: also called clone G4_24
B5: G4_10 (antibody, human IgG1, V domains shown)
VH: QVQLVESGGGVVQPGRPLRLSCAASGFTFSSYAMHWVRQAPGKGLEWVSAISGSGGSTYYADSVKGRFTISRDNSKNTLYLQMNSLRAEDTAVYYCAKDGAVDFWRNGMDVWGRGTLVTVSS
VL: DIVMTQPPLSLPVTLGHPASISCKSSQSLEYSDGNTYLNWFQQRPGQSPRRLIYKVSNRDSGAPDRFSGSGSGTDFTLEISRVEAEDVGVYYCMQGTLWPPTFGQGTKVDIKR
notes: also called clone G4_10
B6: G4_28 (antibody, human IgG1, V domains shown)
VH: QVQLVESGGGLVQPGGSLRLSCAASGFTFDDYAMHWVRQAPGKGLEWVSGISAGGGSTNYAGSVKGRFTVSRDTSKNTLYLQMNSLRAEDTAVYYCVKSYVDTAMRYYYYYMDVWGQGTMVTVSS
VL: SSYELTQDPAVSVALGQTVTITCQGDSLRNYYASWYRQKPGQTPVLVVYGKNNRPSGIPDRFSVSASGNTASLTITGAQAEDEGDYYCNSRDSSGVVFGGGTKVTVLG
notes: also called clone G4_28
B7: G4_16 (antibody, human IgG1, V domains shown)
VH: EVQLLESGAEVKKPGASVKVSCKASGYTFTSYGISWVRQAPGQGLEWMGWISAYNGNTNYAQKLQGRVTMTTDTSTSTAYMELRSLRSDDTAVYYCARDYGDFYGMDVWGQGTLVTVSS
VL: SQSVLTQPPSASGSPGQSVTFSCTGTSSDIGAFNSVSWYQQHPGKAPKLLIYEITKRPSGVPDRFSGSKSGNTASLTISVLQAEDEADYYCTSYAGSNTLIFGGGTKVTVLG
notes: also called 1248_P02_D10; clone G4_16
B8: G4_15 (antibody, human IgG1, V domains shown)
VH: EVQLVQSEAEVKKPGASVKVSCKASGYTFTRHYMHWVRQAPGQGLEWMGLINPSGSSTVYAQKFQGRVTLTRDTSTSTDYMELSSLRSEDTAVYYCARDNSHLDQVWWFDPWGQGTLVTVSS
VL: SQSALTQPASVSGSPGQSITISCTGTSSDVGGYNYVSWYQQHPGKAPKLMIYDVSNRPSGVSNRFSGSKSGNTASLTISGLQAEDEADYYCSSYGSGSVFGTGTKLTVLG
notes: also called clone G4_15
B9: G4_25 (antibody, human IgG1, V domains shown)
VH: EVQLVESGAEVKKPGSSVKVSCKASGGTFSSYAISWVRQAPGQGLEWMGGIIPIFGTANYAQKFQGRVTITADKSTSTAYMELSSLRSEDTAVYYCARSLRDGYNYIGSLGYWGQGTLVTVSS
VL: B8 VL with A9R, I19V, D53E
notes: also called clone G4_25
B10: G4_26 (antibody, human IgG1, V domains shown)
VH: QVQLVQSGAEVKKPGSSVKVSCKASGGTFSSYAISWVRQAPGQGLEWMGGIIPIFGTANYAQKFQGRVTITADESTSTAYMELSSLRSEDTAVYYCASSRGSGWFPLGYWGQGTLVTVSS
VL: B8 VL with A4G, G32S, Y35L, D53E, N56K, Y94F, V99I
notes: also called clone G4_26
B11: G4_14 (antibody, human IgG1, V domains shown)
VH: EVQLVQSGAEVKKPGESLRISCKGSGYSFTSYWISWVRQMPGKGLEWMGRIDPSDSYTNYSPSFPGHVTISADKSISTAYLQWSSLKASDTAMYYCAADTAHGMDVWGRGTLVTVSS
VL: SNFMLTQPHSVSESPGKTVTISCTRSRGSIAGNYVHWYQQRPGRAPTTVIYRDKERPSGVPDRISGSIDSSSNSASLTISGLKTEDEADYYCQSYDSSTHVVFGGGTKLTVLG
notes: also called clone G4_14
B12: G4_19 (antibody, human IgG1, V domains shown)
VH: EVQLVQSGAEVKKPGASVKVSCKASGYTLTSYYMHWVRQAPGQGLEWMGIINPSGGSTSYAQKFQGRVTMTRDTSTSTVYMELSSLRSEDTAVYYCARERGYSYGDGMDVWGQGTTVTVSS
VL: SNFMLTQPHSVSESPGKTVTISCTRSSGSIASNYVQWYQQRPGSPPITLIYDDDQRPSGVPHRFSGSIDTSSNPASLTISGLKTEDEADYYCQSYDSSNHVVFGGGTKLTVLG
notes: also called clone G4_19
B13: G4_4 (antibody, human IgG1, V domains shown)
VH: QVQLVESGGGLVQPGGSLRLSCAASGFTFSSYAMSWVRQAPGKGLEWVSAISGSGGSTYYADSVKGRFTISRDNSKNTLYLQMSSLRVEDTAVYYCAKSSVGWWSFDYWGQGTMVTVSS
VL: not shown
notes: also called clone G4_4
B14: G4_13 (antibody, human IgG1, V domains shown)
VH: QVQLVESGAEVKKPGGSLRLSCAASGFTFSSYSMNWVRQAPGKGLEWVSSISGTSSYIYYADSVKGRFTISRDNAKNSLYLQMSSLRAEDTAVYYCARGGLGMVDPWGQGTLVTVSS
VL: SNFMLTQPHSVSESPGKTVTISCTRSSGSIASNYVQWYQQRPGSSPSTVIYEDNQRPSGVPDRFSGSIDSSSNSASLTISGLRTEDEADYYCQSYDSSIYVVFGGGTKLTVLG
notes: also called clone G4_13
B15: G4_5 (antibody, V domains shown)
VH: EVQLVQSGAEVKKPGSSVKVSCKASGYTFTSYGISWVRQAPGQGLEWMGWIGAYNGNTNYAQKLQGRVTMSTDTSTSTAYMELRSPRSDDTAVYYCARGGTGGDHVFAYWGQGTTVTVSS
VL: not shown
notes: also called clone G4_5

target: L2 (DV1-GV2), soluble leucine zipper γδ TCR heterodimer of a delta variable 1 chain and a gamma variable 2 … (human); test: DELFIA ELISA, coated antigen;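 also: binding of antibody supernatants or protein-A purified antibodies to plate-coated antigen (3 µg/ml recombinant TCR or BSA), 1 h incubation at room temperature, DELFIA readout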
Sequence (chain, as listed by the source mutant, chain 1 of 2): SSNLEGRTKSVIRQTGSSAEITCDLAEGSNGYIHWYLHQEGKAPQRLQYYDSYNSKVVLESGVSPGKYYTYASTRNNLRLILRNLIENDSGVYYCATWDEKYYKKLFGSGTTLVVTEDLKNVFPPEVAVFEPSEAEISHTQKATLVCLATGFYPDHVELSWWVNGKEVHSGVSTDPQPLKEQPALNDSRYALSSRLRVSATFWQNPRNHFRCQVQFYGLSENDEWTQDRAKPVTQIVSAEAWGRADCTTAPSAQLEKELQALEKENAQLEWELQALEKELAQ
Sequence (chain, as listed by the source mutant, chain 2 of 2): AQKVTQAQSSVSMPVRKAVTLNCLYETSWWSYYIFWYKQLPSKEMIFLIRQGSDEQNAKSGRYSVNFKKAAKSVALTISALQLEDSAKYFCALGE
Procedure: (§1) A DELFIA ELISA binding method was also employed to assess binding of antibody supernatants or further protein-A purified antibody. In brief, MaxiSorp plates were coated with 3 μg/ml of antigen BSA or L1 (DV1-GV4), L2 (DV1-GV2), L3 (DV1-GV8), or L4 (DV2-GV4) recombinant TCR antigen. Plates were then washed with PBS, blocked with PBS/skimmed milk and then test article added and incubated for 1 hour at room temperature.

Binder	DELFIA ELISA response (FU)
B1	567
B2	86
B3	100
B4	534
B5	109
B6	576
B7	84
B8	844
B9	486
B10	680
B11	199
B12	73
B13	90
B14	94

target: T1, BSA (bovine, UniProt P02769); test: DELFIA ELISA, coated antigen;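 also: binding of antibody supernatants or protein-A purified antibodies to plate-coated antigen (3 µg/ml recombinant TCR or BSA), 1 h incubation at room temperature, DELFIA readout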
T1 construct: coated at 3 µg/ml; also called bovine serum albumin, control antigen of the DELFIA ELISA
T1 sequence (P02769 25-607 limits assumed): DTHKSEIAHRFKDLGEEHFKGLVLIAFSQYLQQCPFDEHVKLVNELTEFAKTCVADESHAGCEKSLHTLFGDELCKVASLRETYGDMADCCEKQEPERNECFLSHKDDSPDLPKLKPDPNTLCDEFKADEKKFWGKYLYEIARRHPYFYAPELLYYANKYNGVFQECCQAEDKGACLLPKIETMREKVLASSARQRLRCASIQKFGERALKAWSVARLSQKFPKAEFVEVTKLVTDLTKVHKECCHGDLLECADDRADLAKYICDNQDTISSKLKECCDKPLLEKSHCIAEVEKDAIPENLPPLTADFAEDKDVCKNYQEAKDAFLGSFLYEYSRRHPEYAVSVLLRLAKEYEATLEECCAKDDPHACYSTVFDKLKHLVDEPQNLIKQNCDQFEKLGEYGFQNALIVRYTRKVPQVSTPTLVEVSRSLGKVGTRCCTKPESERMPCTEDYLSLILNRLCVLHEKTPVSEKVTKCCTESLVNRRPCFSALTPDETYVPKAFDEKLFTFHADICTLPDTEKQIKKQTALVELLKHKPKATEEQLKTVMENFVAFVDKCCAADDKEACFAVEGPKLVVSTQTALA
Procedure: as §1

Binder	DELFIA ELISA response (FU)	binding result
B1	47	no binding
B2	56	no binding
B3	78	no binding
B4	53	no binding
B5	57	no binding
B15	86	no binding
B6	65	no binding
B7	69	no binding
B8	63	no binding
B9	40	no binding
B10	51	no binding
B11	135	no binding
B12	55	no binding
B14	78	no binding

target: L3 (DV1-GV8), soluble leucine zipper γδ TCR heterodimer of a delta variable 1 chain and a gamma variable 8 … (human); test: DELFIA ELISA, coated antigen;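 also: binding of antibody supernatants or protein-A purified antibodies to plate-coated antigen (3 µg/ml recombinant TCR or BSA), 1 h incubation at room temperature, DELFIA readout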
Sequence (chain, as listed by the source mutant, chain 1 of 2): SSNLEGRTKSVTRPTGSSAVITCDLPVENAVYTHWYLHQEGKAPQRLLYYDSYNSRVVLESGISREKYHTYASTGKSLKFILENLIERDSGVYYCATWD
Sequence (chain, as listed by the source mutant, chain 2 of 2): as the sequence (chain, as listed by the source mutant, chain 2 of 2) above
Procedure: as §1

Binder	DELFIA ELISA response (FU)
B1	980
B2	270
B3	244
B4	960
B5	187
B6	984
B7	118
B8	156
B9	885
B10	870
B11	229
B12	192
B13	190
B14	270

target: T2, L1 (DV1-GV4), soluble leucine zipper γδ TCR heterodimer of a delta variable 1 chain and a gamma variable 4 … (human); test: DELFIA ELISA, coated antigen;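 also: binding of antibody supernatants or protein-A purified antibodies to plate-coated antigen (3 µg/ml recombinant TCR or BSA), 1 h incubation at room temperature, DELFIA readout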
T2 construct: also called bt-L1; not shown: histidine tag/linker said to follow the zipper
T2 sequence (main, as listed by the source, chain 1 of 2): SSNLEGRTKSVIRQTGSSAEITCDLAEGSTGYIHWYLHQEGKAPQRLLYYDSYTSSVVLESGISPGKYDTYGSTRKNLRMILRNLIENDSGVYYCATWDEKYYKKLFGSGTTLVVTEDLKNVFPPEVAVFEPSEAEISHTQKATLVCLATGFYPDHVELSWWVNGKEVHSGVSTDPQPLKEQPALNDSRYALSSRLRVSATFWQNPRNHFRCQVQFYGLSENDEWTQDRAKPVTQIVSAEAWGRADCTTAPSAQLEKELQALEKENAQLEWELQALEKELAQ
T2 sequence (main, as listed by the source, chain 2 of 2): as the sequence (chain, as listed by the source mutant, chain 2 of 2) above

Binder	DELFIA ELISA response (FU)
B1	109000
B2	201000
B3	202000
B4	154000
B5	145000
B15	163000
B6	227000
B7	178000
B8	119000
B9	21700
B10	22800
B11	208000
B12	142000
B14	196000
